Laboratory results published in the supplement of paper PMC11246515.
± gives the standard deviation of the averaged measurements.

Experiment: total protein half-life in vivo (active degradation + dilution); higher = more stable protein
[1] = E. coli NCM3722 delta-clpP delta-lon delta-hslV, growth: N-lim chemostat, doubling time 6 h
[2] = E. coli NCM3722 delta-hslV, growth: N-lim chemostat, doubling time 6 h
[3] = wild type E. coli NCM3722, growth: N-lim chemostat, doubling time 6 h
[4] = E. coli NCM3722 delta-lon, growth: N-lim chemostat, doubling time 6 h
[5] = E. coli NCM3722 delta-smpB, growth: N-lim chemostat, doubling time 6 h
[6] = wild type E. coli NCM3722, growth: C-lim chemostat, doubling time 3 h
[7] = wild type E. coli NCM3722, growth: C-lim chemostat, doubling time 6 h
[8] = wild type E. coli NCM3722, growth: C-lim chemostat, doubling time 12 h
[9] = wild type E. coli NCM3722, growth: N-lim chemostat, doubling time 12 h
[10] = wild type E. coli NCM3722, growth: P-lim chemostat, doubling time 6 h
[11] = wild type E. coli NCM3722, growth: P-lim chemostat, doubling time 12 h
[12] = E. coli NCM3722 delta-clpP, growth: N-lim chemostat, doubling time 6 h

Sequence | total protein half-life in vivo [1] | total protein half-life in vivo [2] | total protein half-life in vivo [3] | total protein half-life in vivo [4] | total protein half-life in vivo [5] | total protein half-life in vivo [6] | total protein half-life in vivo [7] | total protein half-life in vivo [8] | total protein half-life in vivo [9] | total protein half-life in vivo [10] | total protein half-life in vivo [11] | total protein half-life in vivo [12]
MNVNSSSNRGEAILAALKTQFPGAVLDEERQTPEQVTITVKINLLPDVVQYLYYQHDGWLPVLFGNDERTLNGHYAVYYALSMEGAEKCWIVVKALVDADSREFPSVTPRVPAAVWGEREIRDMYGLIPVGLPDQRRLVLPDDWPEDMHPLRKDAMDYRLRPEPTTDSETYPFINEGNSDARVIPVGPLHITSDEPGHFRLFVDGEQIVDADYRLFYVHRGMEKLAETRMGYNEVTFLSDRVCGICGFAHSVAYTNSVENALGIEVPQRAHTIRSILLEVERLHSHLLNLGLSCHFVGFDTGFMQFFRVREKSMTMAELLIGSRKTYGLNLIGGVRRDILKEQRLQTLKLVREMRADVSELVEMLLATPNMEQRTQGIGILDRQIARDLRFDHPYADYGNIPKTLFTFTGGDVFSRVMVRVKETFDSLAMLEFALDNMPDTPLLTEGFSYKPHAFALGFVEAPRGEDVHWSMLGDNQKLFRWRCRAATYANWPVLRYMLRGNTVSDAPLIIGSLDPCYSCTDRVTLVDVRKRQSKTVPYKEIERYGIDRNRSPLK | 7.09 h | 5.63 h | 5.27 h |  |  |  |  |  |  |  |  | 
MNYELLTTENAPVKMWTKGVPVEADARQQLINTAKMPFIFKHIAVMPDVHLGKGSTIGSVIPTKGAIIPAAVGVDIGCGMNALRTALTAEDLPENLAELRQAIETAVPHGRTTGRCKRDKGAWENPPVNVDAKWAELEAGYQWLTQKYPRFLNTNNYKHLGTLGTGNHFIEICLDESDQVWIMLHSGSRGIGNAIGTYFIDLAQKEMQETLETLPSRDLAYFMEGTEYFDDYLKAVAWAQLFASLNRDAMMENVVTALQSITQKTVRQPQTLAMEEINCHHNYVQKEQHFGEEIYVTRKGAVSARAGQYGIIPGSMGAKSFIVRGLGNEESFCSCSHGAGRVMSRTKAKKLFSVEDQIRATAHVECRKDAEVIDEIPMAYKDIDAVMAAQSDLVEVIYTLRQVVCVKG | 5.37 ± 0.74 h | 1.46 ± 0.41 h | 1.73 h | 2.04 ± 0.29 h | 1.46 ± 0.066 h | 1.6 ± 0.19 h | 2.78 ± 0.54 h | 3.19 ± 0.052 h | 1.67 ± 0.49 h | 1.98 ± 0.61 h | 3.92 ± 0.64 h | 
MNYRIIPVTAFSQNCSLIWCEQTRLAALVDPGGDAEKIKQEVDDSGLTLMQILLTHGHLDHVGAAAELAQHYGVPVFGPEKEDEFWLQGLPAQSRMFGLEECQPLTPDRWLNEGDTISIGNVTLQVLHCPGHTPGHVVFFDDRAKLLISGDVIFKGGVGRSDFPRGDHNQLISSIKDKLLPLGDDVIFIPGHGPLSTLGYERLHNPFLQDEMPVW | 4.63 ± 0.21 h | 3.09 ± 0.2 h | 3.73 ± 0.55 h | 4.23 ± 0.31 h | 3.17 ± 0.34 h |  | 6.22 ± 1.2 h | 9.88 ± 0.89 h | 4.36 ± 0.79 h | 5.05 ± 0.39 h | 9.46 ± 1.1 h | 5.7 ± 1.5 h
MNYSHDNWSAILAHIGKPEELDTSARNAGALTRRREIRDAATLLRLGLAYGPGGMSLREVTAWAQLHDVATLSDVALLKRLRNAADWFGILAAQTLAVRAAVTGCTSGKRLRLVDGTAISAPGGGSAEWRLHMGYDPHTCQFTDFELTDSRDAERLDRFAQTADEIRIADRGFGSRPECIRSLAFGEADYIVRVHWRGLRWLTAEGMRFDMMGFLRGLDCGKNGETTVMIGNSGNKKAGAPFPARLIAVSLPPEKALISKTRLLSENRRKGRVVQAETLEAAGHVLLLTSLPEDEYSAEQVADCYRLRWQIELAFKRLKSLLHLDALRAKEPELAKAWIFANLLAAFLIDDIIQPSLDFPPRSAGSEKKN [P0CF93] | 5.49 ± 0.06 h | 1.34 ± 0.12 h | 1.62 ± 0.41 h | 1.85 ± 0.024 h | 0.81 h | 0.861 ± 0.23 h | 1.69 ± 0.64 h | 2.64 ± 0.44 h | 2.3 ± 0.26 h | 0.485 h | 11.9 h | 0.94 h
MNYSLKQLKVFVTVAQEKSFSRAGERIGLSQSAVSHSVKELENHTGVRLLDRTTREVVLTDAGQQLALRLERLLDELNSTLRDTGRMGQQLSGKVRVAASQTISAHLIPQCIAESHRRYPDIQFVLHDRPQQWVMESIRQGDVDFGIVIDPGPVGDLQCEAILSEPFFLLCHRDSALAVEDYVPWQALQGAKLVLQDYASGSRPLIDAALARNGIQANIVQEIGHPATLFPMVAAGIGISILPALALPLPEGSPLVVKRITPVVERQLMLVRRKNRSLSTAAEALWDVVRDQGNALMAGREGDPLYQI [P0ACR7] | 6.06 ± 0.61 h | 5.19 ± 0.28 h | 4.85 ± 0.15 h |  |  | 2.84 h |  | 12.5 ± 1.6 h | 9.2 ± 0.89 h | 3.88 h | 6.14 ± 1.9 h | 4.84 ± 0.076 h
MPAENIVEVHHLKKSVGQGEHELSILTGVELVVKRGETIALVGESGSGKSTLLAILAGLDDGSSGEVSLVGQPLHNMDEEARAKLRAKHVGFVFQSFMLIPTLNALENVELPALLRGESSAESRNGAKALLEQLGLGKRLDHLPAQLSGGEQQRVALARAFNGRPDVLFADEPTGNLDRQTGDKIADLLFSLNREHGTTLIMVTHDLQLAARCDRCLRLVNGQLQEEA [P0A9T8] | 6.26 h | 5.9 h | 7.11 h |  | 5.39 ± 0.17 h | 3.23 ± 0.07 h | 5.51 ± 0.64 h | 11.2 ± 1.8 h | 11.4 ± 0.56 h | 5.46 ± 0.41 h | 11.6 h | 6.68 h
MPALDLIRPSVTAMRVIASVNADFARELKLPPHIRSLGLISADSDDVTYIAADEATKQAMVEVVYGRSLYAGAAHGPSPTAGEVLIMLGGPNPAEVRAGLDAMIAHIENGAAFQWANDAQDTAFLAHVVSRTGSYLSSTAGITLGDPMAYLVAPPLEATYGIDAALKSADVQLATYVPPPSETNYSAAFLTGSQAACKAACNAFTDAVLEIARNPIQRA | 6.04 ± 0.88 h | 4.39 ± 0.31 h | 4.87 ± 0.41 h | 4.68 ± 0.094 h | 4.69 ± 0.1 h | 3.11 ± 0.15 h | 5.97 ± 0.72 h | 11.95 ± 0.013 h | 7.99 h | 6.1512 ± 0.003 h | 11.4 ± 0.5 h | 4.87 h
MPDAKKQGRSNKAMTFFVCFLAALAGLLFGLDIGVIAGALPFIADEFQITSHTQEWVVSSMMFGAAVGAVGSGWLSFKLGRKKSLMIGAILFVAGSLFSAAAPNVEVLILSRVLLGLAVGVASYTAPLYLSEIAPEKIRGSMISMYQLMITIGILGAYLSDTAFSYTGAWRWMLGVIIIPAILLLIGVFFLPDSPRWFAAKRRFVDAERVLLRLRDTSAEAKRELDEIRESLQVKQSGWALFKENSNFRRAVFLGVLLQVMQQFTGMNVIMYYAPKIFELAGYTNTTEQMWGTVIVGLTNVLATFIAIGLVDRWGRKPTLTLGFLVMAAGMGVLGTMMHIGIHSPSAQYFAIAMLLMFIVGFAMSAGPLIWVLCSEIQPLKGRDFGITCSTATNWIANMIVGATFLTMLNTLGNANTFWVYAALNVLFILLTLWLVPETKHVSLEHIERNLMKGRKLREIGAHD [P0AEP1] |  | 4.28 h |  |  | 6.91 h | 2.58 h | 4.51 h |  |  | 5.628 ± 0.028 h | 9.86 h | 4.26 h
MPHNPIRVVVGPANYFSHPGSFNHLHDFFTDEQLSRAVWIYGKRAIAAAQTKLPPAFGLPGAKHILFRGHCSESDVQQLAAESGDDRSVVIGVGGGALLDTAKALARRLGLPFVAVPTIAATCAAWTPLSVWYNDAGQALHYEIFDDANFMVLVEPEIILNAPQQYLLAGIGDTLAKWYEAVVLAPQPETLPLTVRLGINNAQAIRDVLLNSSEQALSDQQNQQLTQSFCDVVDAIIAGGGMVGGLGDRFTRVAAAHAVHNGLTVLPQTEKFLHGTKVAYGILVQSALLGQDDVLAQLTGAYQRFHLPTTLAELEVDINNQAEIDKVIAHTLRPVESIHYLPVTLTPDTLRAAFKKVESFKA | 4.77 ± 0.33 h | 4.1 ± 0.11 h | 4.38 h | 4.91 ± 0.17 h | 4.21 ± 0.15 h | 2.67 ± 0.1 h | 5.28 ± 0.084 h | 9.15 ± 1.6 h | 7.78 h | 5.64 ± 0.28 h | 11.2 ± 0.17 h | 4.6 ± 0.098 h
MPIRVPDELPAVNFLREENVFVMTTSRASGQEIRPLKVLILNLMPKKIETENQFLRLLSNSPLQVDIQLLRIDSRESRNTPAEHLNNFYCNFEDIQDQNFDGLIVTGAPLGLVEFNDVAYWPQIKQVLEWSKDHVTSTLFVCWAVQAALNILYGIPKQTRTEKLSGVYEHHILHPHALLTRGFDDSFLAPHSRYADFPAALIRDYTDLEILAETEEGDAYLFASKDKRIAFVTGHPEYDAQTLAQEFFRDVEAGLDPDVPYNYFPHNDPQNTPRASWRSHGNLLFTNWLNYYVYQITPYDLRHMNPTLD | 3.26 ± 0.67 h | 1.61 ± 0.2 h | 1.58 ± 0.093 h | 1.87 ± 0.033 h | 1.52 ± 0.29 h | 2.61 ± 0.097 h | 3.27 ± 0.32 h | 4.92 ± 0.52 h | 2.14 ± 0.23 h | 3.94 ± 0.39 h | 6.4 ± 0.19 h | 1.85 ± 0.45 h
MPKFRVSLFSLALMLAVPFAPQAVAKTAAATTASQPEIASGSAMIVDLNTNKVIYSNHPDLVRPIASISKLMTAMVVLDARLPLDEKLKVDISQTPEMKGVYSRVRLNSEISRKDMLLLALMSSENRAAASLAHHYPGGYKAFIKAMNAKAKSLGMNNTRFVEPTGLSVHNVSTARDLTKLLIASKQYPLIGQLSTTREDMATFSNPTYTLPFRNTNHLVYRDNWNIQLTKTGFTNAAGHCLVMRTVINNKPVALVVMDAFGKYTHFADASRLRTWIETGKVMPVPAAALSYKKQKAAQMAAAGQTAQND [P0AFI5] | 3.37 ± 0.94 h | 2.57 ± 0.64 h | 2.93 ± 0.48 h | 2.78 ± 0.39 h | 1.81 ± 0.06 h | 1.2 ± 0.078 h | 1.65 ± 0.34 h | 5.03 ± 1.2 h | 3.05 ± 0.18 h | 3.78 ± 3.8 h | 5.78 ± 1.1 h | 4.68 ± 1.7 h
